The Kd is the constant that tells how readily two partners part at equilibrium. Read a low Kd as a tighter complex.

Assay [1] has as its target OTUB1 (C91S), catalytically inactive mutant (UniProt Q96FW1 1-271, C91S). The experiment in a line: ITC. Background: In ITC the heat of successive injections is recorded.
Assay [2] addresses OTUB1 wild-type (UniProt Q96FW1 1-271). The experiment in a line: ITC.

Chain of OTUB1 (C91S), catalytically inactive mutant (Q96FW1 whole entry C91S): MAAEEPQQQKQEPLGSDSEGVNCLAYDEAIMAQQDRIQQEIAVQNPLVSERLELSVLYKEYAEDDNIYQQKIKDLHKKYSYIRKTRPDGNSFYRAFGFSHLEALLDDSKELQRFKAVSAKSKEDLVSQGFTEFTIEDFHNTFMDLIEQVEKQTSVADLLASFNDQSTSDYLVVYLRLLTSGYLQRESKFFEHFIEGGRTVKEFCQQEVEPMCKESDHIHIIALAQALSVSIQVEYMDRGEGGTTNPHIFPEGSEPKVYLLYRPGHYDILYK
Chain of OTUB1 wild-type (Q96FW1 whole entry): as the sequence (Q96FW1 whole entry C91S) above, with S91C counted along it

B1: UBE2D1 (enzyme)
chain: not shown
As to B1, the binding result in assay [1] and in assay [2] was “binds” each time.

B2: UBE2N (enzyme, human, UniProt P61088 1-152, looked up)
chain: MAGLPRRIIKETQRLLAEPVPGIKAEPDESNARYFHVVIAGPQDSPFEGGTFKLELFLPEEYPMAAPKVRFMTKIYHPNVDKLGRICLDILKDKWSPALQIRTVLLSIQALLSAPNPDDPLANDVAEQWKTNEAQAIETARAWTRLYAMNNI
Regarding B2, the dissociation constant Kd in assay [1] was 8.1 µM.

B3: UBE2E1 (enzyme, human, UniProt P51965 1-193, looked up)
chain: MSDDDSRASTSSSSSSSSNQQTEKETNTPKKKESKVSMSKNSKLLSTSAKRIQKELADITLDPPPNCSAGPKGDNIYEWRSTILGPPGSVYEGGVFFLDITFTPEYPFKPPKVTFRTRIYHCNINSQGVICLDILKDNWSPALTISKVLLSICSLLTDCNPADPLVGSIATQYMTNRAEHDRMARQWTKRYAT
Consider B3, for which, in assay [1], the binding result is “binds”.

The values above are taken from doi:10.1101/847806 (bioRxiv, 2019).
